# From PMC6030200 (Scientific Reports, 2018)
# B1: HAdV-5 penton base protein, recombinant, soluble (natural protein)
# chain: MRRAAMYEEGPPPSYESVVSAAPVAAALGSPFDAPLDPPFVPPRYLRPTGGRNSIRYSELAPLFDTTRVYLVDNKSTDVASLNYQNDHSNFLTTVIQNNDYSPGEASTQTINLDDRSHWGGDLKTILHTNMPNVNEFMFTNKFKARVMVSRLPTKDNQVELKYEWVEFTLPEGNYSETMTIDLMNNAIVEHYLKVGRQNGVLESDIGVKFDTRNFRLGFDPVTGLVMPGVYTNEAFHPDIILLPGCGVDFTHSRLSNLLGIRKRQPFQEGFRITYDDLEGGNIPALLDVDAYQASLKDDTEQGGGGAGGSNSSGSGAEENSNAAAAAMQPVEDMNDHAIRGDTFATRAEEKRAEAEAAAEAAAPAAQPEVEKPQKKPVIKPLTEDSKKRSYNLISNDSTFTQYRSWYLAYNYGDPQTGIRSWTLLCTPDVTCGSEQVYWSLPDMMQDPVTFRSTRQISNFPVVGAELLPVHSKSFYNDQAVYSQLIRQFTSLTHVFNRFPENQILARPPAPTITTVSENVPALTDHGTLPLRNSIGGVQRVTITDARRRTCPYVYKALGIVSPRVLSSRTF
# notes: also called 5PB; source: Sf9 (baculovirus, pFastBac HT A), purified (Ni-NTA agarose, HiTrap Q-sepharose)
# Target: the molecule itself
# Assay: negative-stain electron microscopy
protein,measurement,value
B1,stoichiometry N,5
